# Assay results: the supplement of paper PMC7125110
# ± gives the standard error. This sample holds only a part of the variants without activity.
# B1: glmS ribozyme (parent)
# chain: AUAAAAGCGCCAGAACUACAGAAAUGUAGUUGACGAGGAGGAGGUUUAUCGAAUUUUCGGCGGAUGCCUCCAAA
# Assays:
# Conditions in all cases: with glucosamine-6-phosphate
# [1] = variants of: B1; assay: self-cleavage kobs at 160 uM GlcN6P; higher = faster cleavage; RNA array
# Outline: (§1)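 Weighted Michaelis–Menten fits across concentrations supplied kcat and KM, based on kobs from one- or two-exponential decay fits to normalised per-tile medians. The data came from barcoded ribozyme variants transcribed in situ by E. coli RNA polymerase on sequenced MiSeq chips and tracked at 37 °C by a hybridised Cy3 probe. Glucosamine-6-phosphate (40 μM to 10 mM) in HEPES/KCl/Mg(OAc)2 buffer was flowed in.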
# [2] = variants of: B1; assay: self-cleavage kobs at 640 uM GlcN6P; higher = faster cleavage; RNA array
# Outline: as §1
# [3] = variants of: B1; assay: self-cleavage kobs at 2500 uM GlcN6P; higher = faster cleavage; RNA array
# Outline: as §1
# [4] = variants of: B1; assay: self-cleavage kobs at 10000 uM GlcN6P; higher = faster cleavage; RNA array
# Outline: as §1
Variant,self-cleavage kobs at 160 uM GlcN6P [1] [s⁻¹],self-cleavage kobs at 640 uM GlcN6P [2] [s⁻¹],self-cleavage kobs at 2500 uM GlcN6P [3] [s⁻¹],self-cleavage kobs at 10000 uM GlcN6P [4] [s⁻¹]
G9U G13C A42U,< 1e-05,< 1e-05,< 1e-05,–
G38C C61U C71U,< 1e-05,–,–,–
A39C C61U C71U,< 1e-05,< 1e-05,< 1e-05,–
G43A A52U,< 1e-05,< 1e-05,< 1e-05,–
U30G G38C,< 1e-05,< 1e-05,< 1e-05,–
A36C U46A,< 1e-05,–,< 1e-05,< 1e-05
A15G G41U G62U,< 1e-05,< 1e-05,< 1e-05,–
G51U G63C C67G,< 1e-05,< 1e-05,< 1e-05,< 1e-05
A33U A64G,< 1e-05,–,–,6.18e-05 ± 1.1e-05
U31C G32C C70G,0.000701 ± 0.0003,–,0.000104 ± 2.4e-05,–
C8G A14U G66U,< 1e-05,< 1e-05,–,–
C8A A36C A42C G66C C67A,< 1e-05,–,< 1e-05,–
A6C C8A U31C,< 1e-05,–,< 1e-05,–
A36G G38U,< 1e-05,–,–,< 1e-05
G41A C68U C70U,0.000155 ± 3.4e-05,0.00049 ± 8.2e-05,0.00138 ± 0.00025,–
A6G C10G U46G,< 1e-05,< 1e-05,< 1e-05,–
G9C G32U A39U G41U,< 1e-05,< 1e-05,< 1e-05,–
G7A G35A G51C,< 1e-05,–,< 1e-05,–
G40A G51C,< 1e-05,< 1e-05,–,< 1e-05
C10A C34U C50G G62U,0.00045 ± 0.00013,0.000144 ± 4.8e-05,8.51e-05 ± 2.1e-05,–
G29A G32A G62U,< 1e-05,–,–,–
C16A G60C C67G,< 1e-05,–,< 1e-05,–
C50G A52U U56G A64U,< 1e-05,< 1e-05,< 1e-05,–
A15G C58G G63C C68G,0.000162 ± 4.4e-05,–,–,–
G51A G66A,< 1e-05,< 1e-05,–,–
G9U C16G G32U G38A A42G,< 1e-05,–,–,–
